Reference: article PMC2646901, “Characterisation of receptor binding by the chemotaxis inhibitory protein of Staphylococcus aureus and the effects of the host immune response” (Molecular Immunology, 2007)

B1: recombinant human C5a protein (rh-C5a) (ligand)
chain: TLQKKIEEIAAKYKHSVVKKCCYDGACVNNDETCEQRAARISLGPRCIKAFTECCVVASQLRANISHKDMQLGR
notes: source: expressed and purified according to a previously described protocol (Paczkowski et al., 1999)
B2: human C5aR peptide of the N-terminal extracellular region M1-D37 with additional -APAPAC on the C-terminus (hC5aR_(1–37)) (peptide)
peptide: MDSFNYTTPDYGHYDDKDTLDLNTPVDKTSNTLRVPDAPAPAC
notes: human C5a receptor, N-terminal extracellular region, residues M1-D37; also called human C5aR_(1–37) peptide; source: gift from Dr M. Barker, Division of Genomic Medicine, Sheffield
B3: human C5a receptor (C5aR) (receptor)
chain: MDSFNYTTPDYGHYDDKDTLDLNTPVDKTSNTLRVPDILALVIFAVVFLVGVLGNALVVWVTAFEAKRTINAIWFLNLAVADFLSCLALPILFTSIVQHHHWPFGGAACSILPSLILLNMYASILLLATISADRFLLVFKPIWCQNFRGAGLAWIACAVAWGLALLLTIPSFLYRVVREEYFPPKVLCGVDYSHDKRRERAVAIVRLVLGFLWPLLTLTICYTFILLRTWSRRATRSTKTLKVVVAVVASFFIFWLPYQVTGIMMSFLEPSSPTFLLLKKLDSLCVSFAYINCCINPIIYVVAGQGFQGRLRKSLPSLLRNVLTEESVVRESKSFTRSTVDTMAQKTQAV
notes: human C5a receptor (C5aR), expressed on transfected RBL-2H3 or CHO cells; also called hC5aR; RBL-C5aR; source: RBL-2H3 or CHO cells, transfected by electroporation, on cells

How the values were obtained:
[1] = molecular target: B3; assay: flow cytometry on cells; competition: RBL cells transfected with human C5aR pre-treated with unlabelled CHIPS or human C5a, then 210 nM FITC-rCHIPS(28-149); cell-associated fluorescence; conditions: one partner purified
[2] = molecular target: T1, recombinant chemotaxis inhibitory protein of Staphylococcus aureus, residues 28-149 (rCHIPS_(28–149)) (Staphylococcus aureus N315 (MRSA), UniProt A6QIG7 28-149); assay: ITC; CHIPS(28-149) (0.2 mM) titrated with the peptides; non-linear regression; data not shown; conditions: both partners purified
T1 construct: three N-terminal residues, GlyAlaMet, left from the vector after TEV cleavage; Uniformly 15N-labelled (isotope only) in the NMR titrations; unlabelled in ITC and in the cell assays; also called unlabelled CHIPS; ^15N-labelled CHIPS_(28–149); source: E. coli BL21 (DE3), purified (glutathione sepharose 4B, TEV cleavage, Mono S); not shown: GST, N-terminal, cleaved

[3] = molecular target: T1, recombinant chemotaxis inhibitory …; assay: NMR titration; 1H-15N HSQC of 0.7 mM 15N-CHIPS(28-149), unlabelled lyophilized ligand added to ligand:CHIPS ratios 0, 1:2, 3:4, 1:1, 5:4; 25 °C, 100 mM phosphate pH 7.0, 200 mM NaCl, 1 mM DTT, 0.5 mM EDTA; Kd from fast-exchange shift curves, averaged over residues; conditions: both partners purified
[4] = molecular target: T2, FITC-labelled recombinant CHIPS_(28–149) (Staphylococcus aureus N315 (MRSA), UniProt A6QIG7 28-149, FITC label (site not stated)); assay: flow cytometry on cells; kinetics: 300 nM FITC-CHIPS(28-149) added to C5aR-transfected RBL cells, dissociation started with 14 μM unlabelled CHIPS(28-149); Kd from kobs and koff, five experiments; conditions: one partner purified
T2 construct: three N-terminal residues, GlyAlaMet, left from the vector after TEV cleavage; The discussion once calls the labelled protein of the serum assay rCHIPS_(26–141); results and methods say 28-149; also called FITC-rCHIPS_(28–149); FITC-CHIPS_(28–149); source: E. coli BL21 (DE3), purified (glutathione sepharose 4B, TEV cleavage, Mono S), FITC-labelled; not shown: GST, N-terminal, cleaved

B1
IC50 [1]: ~250 nM

B2
Ka [2]: 25000 M⁻¹ | Kd [2]: ~40 µM | stoichiometry N [2]: 1.4 ± 0.8 | Kd [3]: 8.25 µM

B3
Kd [4]: 7.22 ± 6.66 nM
